Data published in article doi:10.1101/467431 (bioRxiv, 2018).
Read-outs that look alike come from different tables or passages of the source.

T1: Sca2 C-terminal fragment, construct Sca_(868-1515) (Rickettsia conorii, UniProt Q92JF7 868-1515)
T1 sequence: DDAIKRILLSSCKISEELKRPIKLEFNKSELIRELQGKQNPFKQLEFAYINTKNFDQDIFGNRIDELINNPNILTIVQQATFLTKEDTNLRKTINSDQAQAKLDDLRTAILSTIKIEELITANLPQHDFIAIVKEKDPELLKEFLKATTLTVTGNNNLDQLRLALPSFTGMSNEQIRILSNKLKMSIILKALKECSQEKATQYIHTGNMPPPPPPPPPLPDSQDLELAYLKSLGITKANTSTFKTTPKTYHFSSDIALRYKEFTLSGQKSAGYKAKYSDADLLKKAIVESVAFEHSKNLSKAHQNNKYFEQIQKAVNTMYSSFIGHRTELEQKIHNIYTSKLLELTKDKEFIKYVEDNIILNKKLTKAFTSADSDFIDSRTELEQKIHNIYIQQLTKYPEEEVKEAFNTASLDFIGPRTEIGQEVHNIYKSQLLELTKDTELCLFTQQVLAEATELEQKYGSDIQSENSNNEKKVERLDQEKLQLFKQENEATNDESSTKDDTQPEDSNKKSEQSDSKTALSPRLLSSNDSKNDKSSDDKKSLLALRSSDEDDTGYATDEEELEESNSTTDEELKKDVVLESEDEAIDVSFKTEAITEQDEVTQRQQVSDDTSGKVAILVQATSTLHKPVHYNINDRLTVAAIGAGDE


Assays:
Experiment in all cases: ITC
[1] = target: T2, monomeric actin (LatB-actin) (UniProt P68135 1-377)
[2] = target: T2, monomeric actin (LatB-actin); remark: listed apart in the source
[3] = target: T1, Sca2 C-terminal fragment, construct …

Binder | Kd [1] | stoichiometry N [1] | Kd [2] | stoichiometry N [2] | Kd [3]
AAANNNNNNNNNNLGARSVLLEAIRKGIQLRKV (domain or fragment) [MBP fusion of the WH2 domain of WAVE1 (WAVE1 WH2a)] | 0.38 µM | 1.07 |  |  | 
Sca2 construct Sca_(869-1060) (domain or fragment) DAIKRILLSSCKISEELKRPIKLEFNKSELIRELQGKQNPFKQLEFAYINTKNFDQDIFGNRIDELINNPNILTIVQQATFLTKEDTNLRKTINSDQAQAKLDDLRTAILSTIKIEELITANLPQHDFIAIVKEKDPELLKEFLKATTLTVTGNNNLDQLRLALPSFTGMSNEQIRILSNKLKMSIILKALK |  |  | 10.8 µM | 1 LatB-actin monomer per Sca_(869-1060) | 
Sca2 N-terminal fragment, construct Sca_(34-670) (domain or fragment) ASFKDLVSKTPAWEKHNSTQQQNIWKDLTPNEKIKKWQEAALVPSFTQAQNDLGIKYKETDLSSFLDNTRHKARQARAEILLYIERVKQQDFDTKKQAYINQGVVPTDIEAATNLGISYDPSKIDNNVEHDQKVRRAEKDKKAVIELYVSSINRGIKYKHYVDNDIIPEIQEVRTALNMNKDDAQSFVASIRTEIMENAKGQYIADSHIPTEKELKKKFGISRDDNRDGYIKSIRLKVMDKEKPQYIADSHIPTEKELEQKFGADKGEATNYIASIATQMMLDKKSYYIDNNIIPNADELMNEFKIGPVKATSYINQIRAGIEANQFLNNNDTTKPSTGRSQKKSGSKNDHWYMSNQSINNTGTSARIVTGREKKQRYFFDPISTFKTYFNTKASKGNLTQSQHNINRIIQQEENIEEFKNLIKTDPIAALTLQVDSSYKQEAVTTILSDFNDDTIQRVLFSNDKGKLDFNTNIDVKNRPILQELLENSSSEEKTKFAERIQDYATRNISNSQFEEKARLDLIKLAASKDKSSVENFLTLQLELKNRMQPYVVNSVYILTPEIVKEINIELKNKGLIRDSLTKDYMIKLAKEVNNHTLNSVIKVILSDSKILSNETNKILGLAVSNNANNLEQTQSG |  | 2 actin subunits per Sca_(34-670) |  |  | 7 µM
